Experimental data published in US20190331690A1, “BIOTHIOL DETECTION COMPOSITION COMPRISING REDOX REGULATION PROTENIN” (INDUSTRY-UNIVERSITY COOPERATION FOUNDATION HANYANG …, priority 2016, published 2019).

Experiments:
[1] = target: T1, OhrR (Bacillus subtilis, UniProt O34777); experiment: OhrR-biothiol binding by MALDI-TOF MS; design: species or system B. subtilis; settings: 300 nM OhrR, 3 μM CHP
T1 construct: made in house
Protocol: It was confirmed whether it is possible to quantitatively analyze the binding of OhrR and a biothiol using a Matrix-Assisted Laser Desorption Ionization-Time-of-Flight Mass Spectrometry (MALDI-TOF mass spectrometer; MALDI-TOF MS).
1 mL of a 300 nM OhrR-containing buffer (20 mM Tris (pH 8.0), 100 mM NaCl, 5% Glycerol) was mixed with a biothiol (Cys, Hcy or GSH) at each concentration (0, 1, 2, 4, 8, 16, 32, or 64 μM). After 3 μM CHP reacted with each resulting mixture for 2 minutes, 110 μL of 100% TCA was treated to stop the oxidation reaction, and precipitate OhrR. To alkylate the precipitated OhrR, 50 mM iodoacetamide was treated, thereby blocking a cysteine residue of the reduced OhrR. The protein was isolated by sodium dodecyl sulphate-polyacrylamide gel electrophoresis (SDS-PAGE), and then a band corresponding to OhrR was cut out and treated with trypsin (37° C., 12 hours or more), followed by extraction from the gel. 0.5 μL of the extracted peptides were treated with 0.5 μL of a-cyano-4-hydroxycinnamic acid (CHCA) (in 50% acetonitrile, 1% TFA) and dehydrated, and then subjected to MALDI-TOF analysis. The MADI-TOF analysis was performed using a 4700 Proteomics Analyzer instrument (Applied Biosystems).

[2] = target: T1, OhrR; experiment: Biochip detection of LMW biothiols (His6-tag OhrR, HisProbe-HRP, TMB absorbance at 450 nm); assay type: biochemical; settings: same concentration (final 100 μM biothiol), CHP final 5 μM, 10 minutes
Protocol: A biochip method is for […] using His6-tag of OhrR, rather than by labeling with fluorescence or a DNAzyme, according to a principle that OhrR is detached from dsDNA attached to the surface of a biochip in the presence of LMW biothiols, thereby reducing a detection signal.
150 μL of 5 mg/mL NeutrAvidin® (Thermo Scientific, USA) diluted with a coating buffer (100 mM Na2HPO4, 50 mM citric acid) was put into each well of a transparent 96-well plate, and reacted at 37° C. for 4 to 5 hours, and then an unbound residue was washed with TBS four times. After washing, 300 μL of a Seablock blocking buffer (Thermo Scientific, USA) was put into each well and shaken at room temperature for 2 hours for blocking (process of coating NeutrAvidin-unbound surface to prevent non-specific reaction), followed by re-washing with TBS four times. […]
(§1) 50 μL of one of CHP (final 5 μM) and a LMW biothiol (final 100 μM for each of L-cysteine, homocysteine and GSH) was simultaneously put into each well using the biochip to which biotin-dsDNA and His6-tag OhrR were fixed to the NeutrAvidin-coated plate, reacted at room temperature for 10 minutes, and washed with TBS for 4 times. […] After 5 minutes, 2M sulfuric acid was added to stop the reaction, and absorbance was measured at 450 nm. […]

[3] = target: T2, OhrR (organic hydroperoxide regulator) (Bacillus subtilis, UniProt O34777 SEQ:1-147); experiment: FP; 50 nM DNA, 300 nM OhrR; 20 mM Tris pH 8.0, 150 mM NaCl, 5% glycerol; dissociates on CHP plus Cys/Hcy/GSH; settings: chain copies: 2; label: 6-FAM
T2 sequence: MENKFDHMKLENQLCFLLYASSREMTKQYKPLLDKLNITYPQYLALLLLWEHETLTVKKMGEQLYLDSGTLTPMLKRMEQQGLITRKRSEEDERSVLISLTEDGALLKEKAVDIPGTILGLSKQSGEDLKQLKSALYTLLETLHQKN
Protocol: The binding activity between OhrR and fluorescence (6FAM, 6-carboxyfluorescein)-labeled OhrR-binding DNA was measured every 10 seconds using an LS55 luminescence spectrometer (PerkinElmer) after dissolution in 3 mL of a buffer at a concentration under the experimental conditions. When OhrR binds to DNA, an anisotropy value (Anis) increases. However, when OhrR is dissociated from DNA, an anisotropy value decreases. In each experiment, three representative biothiols such as cysteine (Cys), homocysteine (Hcy) and glutathione (GSH) were treated at various concentrations (0, 1, 2, 4, 8, 16, 32, and 64 μM). While OhrR was bound to DNA in the presence of only a free biothiol, a real-time dissociation rate of OhrR from DNA was measured by treating a type of representative organic hydroperoxide, that is, cumene hydroperoxide (CHP) (treated at 300 sec).

[4] = target: T3, FLAG-OhrR (Bacillus subtilis, UniProt O34777 SEQ:1-147); experiment: pulldown; anti-FLAG beads, 2 uM OhrR, 100 nM DNA, TBS; released by CHP plus biothiol; settings: tags: FLAG (DYKDDDDK), expressed in E. coli; chain copies: 2; label: 6-FAM
T3 sequence: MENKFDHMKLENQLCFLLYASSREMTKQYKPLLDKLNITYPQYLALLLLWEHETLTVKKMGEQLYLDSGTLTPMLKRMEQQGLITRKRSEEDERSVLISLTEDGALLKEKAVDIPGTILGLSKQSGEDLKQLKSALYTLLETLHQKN
Protocol: First, 30 μL of M2 FLAG affinity beads (Sigma, A2220) were added to respective tubes corresponding to the number of samples, and FLAG-tagged OhrR (2 μM) was bound thereto for 1 hour to reach the total volume of 200 μL (when OhrR is bound to the His6 tag, NTA-Beads can also be used). To remove unbound OhrR, after spin-down, a supernatant was removed, fluorophore or DNAzyme-bound OhrR-binding dsDNA (100 nM, SEQ ID NOs: 1 and 2) was bound to the OhrR-bound beads for 30 minutes. […] Afterward, 200 μL of a supernatant obtained by spin-down was transferred to a 96-well plate, and fluorescence or chemiluminescence was measured. […]
OhrR-binding dsDNA was bound with a fluorescent factor FAM, and 200 μL of the final supernatant was transferred to a 96 well plate, followed by fluorescence measurement using a multi plate reader (Variokan, Thermo Scientific). In the fluorescence measurement, a fluorescent signal value at a 525 nm emission wavelength obtained at an excitation wavelength of 480 nm was obtained, and a fluorescence value of each well was corrected using a well only containing a buffer without a fluorescent factor as a reference value, followed by comparing these values.

[5] = target: T4, His6-OhrR (Bacillus subtilis, UniProt O34777 SEQ:1-147); experiment: plate assay on NeutrAvidin, 5 uM OhrR, TBS, HisProbe-HRP readout; signal reduced by CHP plus biothiol; settings: tags: His6; chain copies: 2; label: biotin
T4 sequence: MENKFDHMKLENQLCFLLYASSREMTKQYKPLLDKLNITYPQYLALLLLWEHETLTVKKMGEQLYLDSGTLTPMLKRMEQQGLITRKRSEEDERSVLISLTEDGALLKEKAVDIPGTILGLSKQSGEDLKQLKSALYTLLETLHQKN
Protocol: 150 μL of 5 mg/mL NeutrAvidin® (Thermo Scientific, USA) diluted with a coating buffer (100 mM Na₂HPO₄, 50 mM citric acid) was put into each well of a transparent 96-well plate, and reacted at 37° C. for 4 to 5 hours, and then an unbound residue was washed with TBS four times. After washing, 300 μL of a Seablock blocking buffer (Thermo Scientific, USA) was put into each well and shaken at room temperature for 2 hours for blocking (process of coating NeutrAvidin-unbound surface to prevent non-specific reaction), followed by re-washing with TBS four times. 100 μL of a biotin-DNA solution diluted with a TBS buffer to 1 μM was put into each well of the blocking-completed microplate, and reacted at room temperature for 1 hour, followed by washing with TBS four times. […]
as §1

[6] = target: T2, OhrR (organic hydroperoxide regulator); experiment: BLI; 50 uM OhrR, TBS; binding thickness about 4.3 nm, falls to about 1 nm with CHP plus biothiol; CHP or biothiol alone still binds; settings: chain copies: 2; label: biotin
[7] = target: T3, FLAG-OhrR; experiment: pulldown; anti-FLAG beads, 5 uM OhrR, 100 nM DNA, TBS; released by CHP plus cysteine, chemiluminescence readout; settings: tags: FLAG (DYKDDDDK), expressed in E. coli; chain copies: 2; label: 5' biotin on complementary strand; 5' single-stranded peroxidase DNAzyme plus T9 linker overhang
Protocol: After unbound dsDNA was removed by spin-down, 160 μL of a buffer (Tris Buffered Saline, TBS)->20 μL of LMW biothiols (by concentration)->20 μL of CHP (500 μM) were sequentially added to each tube, followed by shaking for 5 minutes. Afterward, 200 μL of a supernatant obtained by spin-down was transferred to a 96-well plate, and fluorescence or chemiluminescence was measured. The reducing agent (DTT)-untreated sample may be used for measuring free LMW biothiols, and the reducing agent-treated sample may be used for measuring total LMW biothiols [FIG. 9].
200 μL of the DNAzyme (5′-GG GTT GGG CGG GAT GGG-3′ [SEQ ID NO: 6], synthesized by IDT)-bound OhrR-binding dsDNA was recovered from a supernatant, and 20 μL of a suspension of NeutrAvidin®-coated beads (Thermo Scientific, USA) was added thereto, followed by shaking at room temperature for 30 minutes. Afterward, washing was performed with a TBS (20 mM Tris, 150 mM NaCl, pH 7.4) buffer four times. To induce DNAzyme activity, 180 μL of a TBS buffer was mixed with 20 μL of 1 μM Hemin (Calbiochem, USA) (in TBS) solution to reach the final volume of 200 μL, the beads were precipitated, and then the resulting solution was left at room temperature under a dark condition for 15 minutes or more. […]

In the case of `N[C@@H](CS)C(=O)O` [Cys, cysteine], the “detection signal level among the measured LMW biothiols” value [1] is reported as “highest detection signal level” and the “absorbance signal reducing effect compared with homocysteine or GSH” value [2] is reported as “higher absorbance signal reducing effect”.

B1: OhrR operator dsDNA, 6FAM (dsDNA)
DNA 1: TACAATTAAATTGTATACAATTAAATTGTA
DNA 2: TACAATTTAATTGTATACAATTTAATTGTA
B1: binds [3]; binds [4].

B2: OhrR operator dsDNA, biotin (dsDNA)
DNA 1: TACAATTAAATTGTATACAATTAAATTGTA
DNA 2: TACAATTTAATTGTATACAATTTAATTGTA
B2: binds [5]; binds [6].

B3: DNAzyme-linked OhrR operator dsDNA probe (dsDNA)
DNA 1: GGGTTGGGCGGGATGGGTTTTTTTTTTACAATTAAATTGTATACAATTAAATTGTA
DNA 2: TACAATTTAATTGTATACAATTTAATTGTA
B3: binds [7].
